The target in series [1] is hRPA (human, UniProt P27694;P15927;P35244 1-616;1-270;1-121). Put plainly: EMSA. A general note: A gel shift assay detects complexes by their altered migration in electrophoresis.
Series [2] has as its target hRPA;RPAIN (human;human, UniProt P27694;P15927;P35244;Q86UA6 1-616;1-270;1-121;1-219, |). Kind of series: EMSA.

hRPA;RPAIN, sequence (P27694 whole entry, chain 1 of 4): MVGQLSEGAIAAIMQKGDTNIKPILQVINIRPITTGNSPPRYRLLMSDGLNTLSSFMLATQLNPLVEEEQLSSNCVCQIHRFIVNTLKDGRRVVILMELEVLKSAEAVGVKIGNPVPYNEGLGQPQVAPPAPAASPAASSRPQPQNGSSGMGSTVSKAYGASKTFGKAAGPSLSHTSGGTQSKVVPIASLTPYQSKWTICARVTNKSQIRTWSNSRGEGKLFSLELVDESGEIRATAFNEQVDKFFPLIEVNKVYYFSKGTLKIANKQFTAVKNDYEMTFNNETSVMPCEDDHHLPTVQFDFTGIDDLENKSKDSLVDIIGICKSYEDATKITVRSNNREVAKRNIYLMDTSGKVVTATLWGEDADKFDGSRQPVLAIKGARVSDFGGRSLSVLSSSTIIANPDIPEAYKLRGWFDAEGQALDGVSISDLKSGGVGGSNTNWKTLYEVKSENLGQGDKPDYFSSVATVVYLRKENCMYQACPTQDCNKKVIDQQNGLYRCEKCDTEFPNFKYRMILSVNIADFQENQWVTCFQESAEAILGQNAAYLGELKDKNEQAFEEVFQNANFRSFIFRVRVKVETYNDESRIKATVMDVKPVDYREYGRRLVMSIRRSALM
hRPA;RPAIN, sequence (P15927 whole entry, chain 2 of 4): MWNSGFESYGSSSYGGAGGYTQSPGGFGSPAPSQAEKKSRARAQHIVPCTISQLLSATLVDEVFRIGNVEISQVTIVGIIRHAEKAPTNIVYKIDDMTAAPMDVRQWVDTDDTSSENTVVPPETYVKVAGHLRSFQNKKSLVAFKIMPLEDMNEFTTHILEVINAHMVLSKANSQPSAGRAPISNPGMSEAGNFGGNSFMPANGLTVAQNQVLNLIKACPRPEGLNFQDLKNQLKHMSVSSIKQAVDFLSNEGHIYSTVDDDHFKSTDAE
hRPA;RPAIN, sequence (P35244 whole entry, chain 3 of 4): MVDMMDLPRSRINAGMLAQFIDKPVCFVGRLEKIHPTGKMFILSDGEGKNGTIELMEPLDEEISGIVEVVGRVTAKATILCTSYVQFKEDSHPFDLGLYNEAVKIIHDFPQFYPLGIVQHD
hRPA;RPAIN, sequence (Q86UA6 whole entry, chain 4 of 4): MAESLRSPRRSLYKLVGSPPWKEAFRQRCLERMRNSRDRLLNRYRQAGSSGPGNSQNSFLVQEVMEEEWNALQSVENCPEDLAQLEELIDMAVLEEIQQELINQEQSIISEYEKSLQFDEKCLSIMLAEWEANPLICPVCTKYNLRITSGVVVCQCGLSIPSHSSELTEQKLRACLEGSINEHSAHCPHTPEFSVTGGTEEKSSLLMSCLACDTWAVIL
hRPA, sequence (P27694 whole entry, chain 1 of 3): as the sequence (P27694 whole entry, chain 1 of 4) above
hRPA, sequence (P15927 whole entry, chain 2 of 3): as the sequence (P15927 whole entry, chain 2 of 4) above
hRPA, sequence (P35244 whole entry, chain 3 of 3): as the sequence (P35244 whole entry, chain 3 of 4) above

Turning to TTTTTTTTTTTTTTTTTTTTTTTTTTTTTT (ssDNA) [5'-Cy5-(dT)30], the Kd (as a rule, the equilibrium constant for the complex coming apart) was determined as 10.5 nM in series [1] and 11.8 nM in series [2].

The record behind these values is publication doi:10.1101/2022.02.05.479199.
